Source: US11807689 (TG THERAPEUTICS, dated 2023)

Key:
[1] = target: FcγIIIA Receptor on the effector cells (UniProt P08637 17-254, limits assumed); assay: cell-based or functional assay
FcγRIIIa 158F receptor = target: T1, FcγRIIIa 158F receptor (human, UniProt P08637 17-208, limits assumed); assay: SPR, receptor amine-coupled to the chip
T1 construct: in the Octet assay part of a 'Human Fc receptor panel' loaded on Anti-Penta His biosensors, so probably His-tagged; also called FcγRIIIA F158
Procedure: (§1) The method follows a direct binding assay methodology where the FcγRIIIa receptor is directly immobilized onto the flow cell on a sensor chip surface and samples are injected over the chip to assess binding. […] Independent duplicates of sample dilutions are injected over the chip, followed by surface regeneration between each cycle. The binding is measured in response units (RU). The kinetics of the binding reaction is determined by measuring changes in SPR due to the increase in mass in the close proximity to the biosensor chip surface. Change in the mass of the complex as a function of time is visualized as a sensorgram.
(§2) The equilibrium dissociation constants (K_D) of each sample is determined for each receptor.

FcγRIIIa 158V receptor = target: T2, FcγRIIIa 158V receptor (human, UniProt P08637 17-208, limits assumed); assay: SPR, receptor amine-coupled to the chip
T2 construct: in the Octet assay part of a 'Human Fc receptor panel' loaded on Anti-Penta His biosensors, so probably His-tagged; also called FcγRIIIA V158
T2 sequence (P08637 17-208 F176V limits assumed): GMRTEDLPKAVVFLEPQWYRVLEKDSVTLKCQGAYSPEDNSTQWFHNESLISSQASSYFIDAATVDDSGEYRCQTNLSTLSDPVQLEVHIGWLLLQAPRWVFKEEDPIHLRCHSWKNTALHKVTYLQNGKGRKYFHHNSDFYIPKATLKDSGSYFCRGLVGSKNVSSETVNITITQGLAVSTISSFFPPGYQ
Procedure: as §1, §2

[2] = target: C1q Receptor in the complement system (rabbit serum complement) (rabbit); assay: cell-based or functional assay

T1 sequence (P08637 17-208 limits assumed): as the sequence (P08637 17-208 F176V limits assumed) above, with V160F counted along it
FcγIIIA Receptor on the effector cells, sequence (P08637 17-254 limits assumed): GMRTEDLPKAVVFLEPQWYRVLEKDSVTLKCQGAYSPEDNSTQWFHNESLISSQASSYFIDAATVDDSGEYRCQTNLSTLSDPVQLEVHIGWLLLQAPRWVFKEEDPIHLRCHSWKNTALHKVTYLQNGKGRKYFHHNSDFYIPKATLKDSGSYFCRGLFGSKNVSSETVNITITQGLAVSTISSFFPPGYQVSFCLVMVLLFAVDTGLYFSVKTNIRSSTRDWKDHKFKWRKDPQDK

ADCC EC50, fold lower than OCREVUS ® [1]: ~25 fold
fold higher affinity than OCREVUS® (FcγRIIIa 158F receptor): ~10 fold
fold higher affinity than OCREVUS® (FcγRIIIa 158V receptor): ~15 fold
CDC EC50 (Jeko-1 cells, rabbit serum) [2]: 670 ng/mL
B1: TG-1101 (TG Therapeutics, Inc.) (antibody, human IgG1, kappa)
heavy: not shown
light: QIVLSQSPAILSASPGEKVTMTCRASSSVSYMHWYQQKPGSSPKPWIYATSNLASGVPARFSGSGSGTSYSFTISRVEAEDAATYYCQQWTFNPPTFGGGTRLEIKRTVAAPSVFIFPPSDEQLKSGTASVVCLLNNFYPREAKVQWKVDNALQSGNSQESVTEQDSKDSTYSLSSTLTLSKADYEKHKVYACEVTHQGLSSPVTKSFNRGEC
notes: Chimeric IgG1 made in rat YB2/0 cells, low-fucose N-glycan profile; also called ublituximab; UBX
